The target in data set [1] is nucleolin (UniProt P19338). The data set can be described thus: SPR. As to conditions: SPR: 1x PBS, nucleolin on CM5 chip, analyte 0.156-10 uM, regeneration 50 mM NaOH, temperature not stated, ELONA: 1x PBS, 1 mM MgCl2, 0.05% Tween 20, 1 uM ….
The target in data set [2] is nucleolin (UniProt P19338). The data set can be described thus: ELONA. As to conditions: 1 mM Mg2+; U6 = 5-fluorouridine (5FU replaces T6; printed F); ELONA: 1x PBS, 1 mM MgCl2, 0.05% Tween 20, 1 uM biotin.

Sequence of nucleolin (P19338 2-710): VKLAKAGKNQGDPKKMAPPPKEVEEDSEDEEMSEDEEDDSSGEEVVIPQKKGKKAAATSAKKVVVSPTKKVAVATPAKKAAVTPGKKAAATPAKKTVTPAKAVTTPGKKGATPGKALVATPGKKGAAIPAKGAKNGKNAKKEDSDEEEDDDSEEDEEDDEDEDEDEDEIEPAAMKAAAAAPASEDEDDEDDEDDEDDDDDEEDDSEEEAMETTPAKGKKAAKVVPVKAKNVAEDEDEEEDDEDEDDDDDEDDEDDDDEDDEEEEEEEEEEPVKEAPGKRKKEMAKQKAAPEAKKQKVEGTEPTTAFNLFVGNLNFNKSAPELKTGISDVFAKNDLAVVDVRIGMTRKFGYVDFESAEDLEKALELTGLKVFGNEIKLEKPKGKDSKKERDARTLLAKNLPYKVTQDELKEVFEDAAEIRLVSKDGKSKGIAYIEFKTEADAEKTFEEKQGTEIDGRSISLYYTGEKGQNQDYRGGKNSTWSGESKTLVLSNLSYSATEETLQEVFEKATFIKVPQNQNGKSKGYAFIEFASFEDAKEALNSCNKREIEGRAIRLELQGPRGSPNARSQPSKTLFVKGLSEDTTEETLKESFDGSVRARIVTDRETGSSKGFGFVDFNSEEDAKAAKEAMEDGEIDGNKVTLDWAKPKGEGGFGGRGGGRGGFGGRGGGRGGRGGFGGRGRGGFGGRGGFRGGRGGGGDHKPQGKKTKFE

Broadly, the Kd is a measure of binding affinity in units of concentration. A high value points to lower affinity. GGTGGTGGTGGTTGTGGTGGTGGTGG [AS1411] gave a Kd with nucleolin [1] of 69.1 nM.

In turn, “GGTGGTGGTGGTTGTGGTGGTGGTGG [ASP (AS1411-paclitaxel, thioether linker)]” gave a Kd with nucleolin [1] (3'-amino DNA conjugated to paclitaxel through thioether linker) of 253 nM.

Sequence “GGTGGUGGTGGTTGTGGTGGTGGTGG [FA (sequence 2, 5FU at site 6 of AS1411)]” registered an equilibrium dissociation constant (Kd) with nucleolin [1] (U6 = 5-fluorouridine (5FU replaces T6; printed F)) of 24.8 nM.

In the case of “GGTGGUGGTGGTTGTGGTGGTGGTGG [FA, biotinylated (sequence 2)]”, the binding signal in the data set with nucleolin [2] was > 100 % of AS1411.

As to “GGTGGUGGTGGTTGTGGTGGTGGTGG [FASP (FA-paclitaxel, thioether linker)]”, in the data set with nucleolin [1] (U6 = 5-fluorouridine (5FU replaces T6), 3'-amino DNA conjugated to paclitaxel through thioether linker), the Kd turned out to be 61.7 nM.

The values above are taken from paper PMC11218354.
